# Measurements: the supplement of paper PMC6755084
# B1: F1*; the commonest letter at each place (parent)
# chain: GAGACCGCAACTGAAAAGTTGTTATCACTTGTCGTAAGACACTTTGGATGGGTTGAAGTTCTGCACGTAGAAGCAAAAGGC
# Variants of: B1
# Assay: fraction ligated after 30 min (ligated reads / total reads); higher = more ligase activity
# Conditions: with F1*sub RNA substrate (template-directed ligation), 42 °C
# Experimental: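 Chip-synthesised pool of F1* ligase ribozyme variants (all single and double substitutions, single, double and triple deletions in the catalytic core and GAA bulge, plus designed variants) was transcribed with T7 and reacted as a pool with excess substrate F1*sub for 30 min at 42 C in 50 mM EPPS pH 8.5, 25 mM MgCl2. Ligated and unligated bands were separated by PAGE, barcoded by RT and deep sequenced; fraction ligated = ligated reads / total reads per variant, relative activity = FL / FL of wild type (0.826). Sequences are the DNA template of the ribozyme.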
row,Variant,fraction ligated
1,C28T A57G,0.798
2,C28T A57C,0.744
3,C28T A57T,0.817
4,T29A A37G,0.839
5,T29A A37C,0.849
6,T29A A37T,0.848
7,C28T T45A,0.532
8,C28T T45G,0.0616
9,C28T T45C,0.284
10,T29C A57T,0.774
11,T29C A57G,0.855
12,T29C A57C,0.797
13,T29C T49A,0.62
14,T29C T49G,0.66
15,T29C T49C,0.104
16,T29C G31A,0.796
17,T29C G31T,0.755
18,T29C G31C,0.804
19,T29C C40T,0.818
20,T29C C40A,0.791
21,T29C C40G,0.824
22,C28T C42G,0.813
23,C28T C42A,0.805
24,C28T C42T,0.819

row,Variant,fraction ligated
1,C28T A39C,0.795
2,C28T A39G,0.796
3,C28T A39T,0.796
4,T29A G46T,0.793
5,T29A G46C,0.779
6,T29A G46A,0.808
7,C28T G38C,0.799
8,C28T G38T,0.795
9,C28T G38A,0.811
10,C28T G46C,0.8
11,C28T G46A,0.802
12,C28T G46T,0.788
13,T29C G46C,0.775
14,T29C G46A,0.804
15,T29C G46T,0.779
16,C28G T29C,0.814
17,C28G T29A,0.803
18,C28G T29G,0.789
19,C28G T32G,0.783
20,C28G T32C,0.723
21,C28G T32A,0.795
22,T29A A48T,0.801
23,T29A A48C,0.761
24,T29A A48G,0.803

row,Variant,fraction ligated
1,C28G C33G,0.505
2,C28G C33A,0.757
3,C28G C33T,0.786
4,T29A G55T,0.788
5,T29A G55C,0.79
6,T29A G55A,0.84
7,T29A G47C,0.249
8,T29A G47T,0.473
9,T29A G47A,0.804
10,C28G C40A,0.791
11,C28G C40G,0.812
12,C28G C40T,0.806
13,C28T A41T,0.806
14,C28T A41G,0.789
15,C28T A41C,0.792
16,C28T T32A,0.822
17,C28T T32G,0.8
18,C28T T32C,0.753
19,C28A T45G,0.0334
20,C28A T45C,0.499
21,C28A T45A,0.698
22,T29A A56G,0.789
23,T29A A56C,0.799
24,T29A A56T,0.827

row,Variant,fraction ligated
1,T29G A57G,0.776
2,T29G A57T,0.811
3,T29G A57C,0.765
4,T29C A41C,0.768
5,T29C A41G,0.766
6,T29C A41T,0.788
7,C28G A39C,0.759
8,C28G A39T,0.755
9,C28G A39G,0.772
10,C28G G31A,0.799
11,C28G G31T,0.833
12,C28G G31C,0.81
13,C28G A48G,0.751
14,C28G A48C,0.405
15,C28G A48T,0.47
16,C28T G50C,0.323
17,C28T G50A,0.352
18,C28T G50T,0.747
19,C28T A36C,0.801
20,C28T A36G,0.81
21,C28T A36T,0.799
22,T29A A39T,0.831
23,T29A A39G,0.845
24,T29A A39C,0.82

row,Variant,fraction ligated
1,C28G,0.797
2,C28T,0.812
3,C28G T43G,0.794
4,C28G T43A,0.807
5,C28G T43C,0.798
6,C28T C40T,0.796
7,C28T C40A,0.824
8,C28T C40G,0.81
9,C28G T45A,0.558
10,C28G T45G,0.259
11,C28G T45C,0.337
12,T29G A37G,0.832
13,T29G A37C,0.814
14,T29G A37T,0.828
15,T29A G38A,0.85
16,T29A G38T,0.87
17,T29A G38C,0.851
18,T29C G55T,0.765
19,T29C G55C,0.638
20,T29C G55A,0.815
21,T29G C33G,0.865
22,T29G C33A,0.85
23,C28T T35G,0.785
24,C28T T35C,0.789

row,Variant,fraction ligated
1,C28T T35A,0.802
2,T29A,0.848
3,T29C,0.824
4,T29G,0.829
5,T29C A37C,0.828
6,T29C A37G,0.824
7,T29C A37T,0.833
8,C28G G47A,0.763
9,C28G G47T,0.591
10,C28G G47C,0.484
11,C28A T44C,0.802
12,C28A T44A,0.834
13,C28A T44G,0.798
14,T29C C33T,0.816
15,T29C C33A,0.824
16,T29C C33G,0.827
17,T29G A41C,0.83
18,T29G A41G,0.815
19,T29G A41T,0.833
20,T29A C40T,0.857
21,T29A C40A,0.851
22,T29A C40G,0.854
23,C28A T43G,0.812
24,C28A T43A,0.799

row,Variant,fraction ligated
1,C28A T43C,0.795
2,T29C G34T,0.823
3,T29C G34C,0.793
4,T29C G34A,0.827
5,T29A T30A,0.86
6,T29A T30G,0.828
7,T29A T30C,0.856
8,T29C T45A,0.554
9,T29C T45G,0.239
10,T29C T45C,0.471
11,T29C A48T,0.592
12,T29C A48G,0.389
13,T29C A48C,0.745
14,C28T A56T,0.731
15,C28T A56G,0.567
16,C28T A56C,0.595
17,C28T G55C,0.221
18,C28T G55A,0.801
19,C28T G55T,0.765
20,T29C A39T,0.807
21,T29C A39G,0.824
22,T29C A39C,0.819
23,T29A A41T,0.827
24,T29A A41G,0.816

row,Variant,fraction ligated
1,T29A A41C,0.801
2,C28G A56C,0.7
3,C28G A56G,0.722
4,C28G A56T,0.767
5,C28G A57G,0.791
6,C28G A57C,0.77
7,C28G A57T,0.79
8,C28T C33T,0.822
9,C28T C33A,0.816
10,C28T C33G,0.809
11,T29G A48C,0.756
12,T29G A48T,0.773
13,T29G A48G,0.805
14,T29C G50C,0.112
15,T29C G50A,0.116
16,T29C G50T,0.41
17,C28T T43G,0.8
18,C28T T43C,0.781
19,C28T T43A,0.803
20,C28T T49C,0.749
21,C28T T49A,0.743
22,C28T T49G,0.811
23,C28T T30A,0.814
24,C28T T30C,0.805

row,Variant,fraction ligated
1,C28T T30G,0.791
2,T29A T32C,0.774
3,T29A T32G,0.842
4,T29A T32A,0.869
5,C28G A36T,0.788
6,C28G A36G,0.812
7,C28G A36C,0.759
8,T29G A56G,0.749
9,T29G A56T,0.793
10,T29G A56C,0.787
11,T29A T49A,0.784
12,T29A T49G,0.789
13,T29A T49C,0.66
14,C28G G55T,0.763
15,C28G G55A,0.779
16,C28G G55C,0.28
17,T29C A56G,0.788
18,T29C A56C,0.758
19,T29C A56T,0.795
20,T29C G38C,0.828
21,T29C G38A,0.803
22,T29C G38T,0.816
23,C28T G31A,0.81
24,C28T G31T,0.826

row,Variant,fraction ligated
1,C28T G31C,0.828
2,T29G A39C,0.822
3,T29G A39G,0.819
4,T29G A39T,0.822
5,C28G A37C,0.766
6,C28G A37G,0.809
7,C28G A37T,0.808
8,C28T G47C,0.252
9,C28T G47A,0.787
10,C28T G47T,0.3
11,C28T A48C,0.606
12,C28T A48G,0.788
13,C28T A48T,0.709
14,C28G T49C,0.674
15,C28G T49G,0.763
16,C28G T49A,0.656
17,T29A T35A,0.821
18,T29A T35C,0.828
19,T29A T35G,0.834
20,T29C A36G,0.841
21,T29C A36T,0.834
22,T29C A36C,0.821
23,C28T T29A,0.823
24,C28T T29G,0.825

row,Variant,fraction ligated
1,C28T T29C,0.789
2,T29C T30C,0.782
3,T29C T30G,0.805
4,T29C T30A,0.796
5,C28G T44A,0.791
6,C28G T44G,0.778
7,C28G T44C,0.778
8,T29A T43C,0.804
9,T29A T43G,0.85
10,T29A T43A,0.84
11,T29A T45C,0.651
12,T29A T45G,0.475
13,T29A T45A,0.774
14,T29A T44C,0.825
15,T29A T44A,0.833
16,T29A T44G,0.812
17,T29A G31A,0.844
18,T29A G31C,0.842
19,T29A G31T,0.845
20,C28G G38T,0.772
21,C28G G38A,0.792
22,C28G G38C,0.778
23,T29C T32C,0.764
24,T29C T32A,0.804

row,Variant,fraction ligated
1,T29C T32G,0.794
2,C28G A41C,0.751
3,C28G A41G,0.744
4,C28G A41T,0.801
5,T29C T35C,0.801
6,T29C T35G,0.831
7,T29C T35A,0.843
8,T29A A57G,0.818
9,T29A A57T,0.813
10,T29A A57C,0.818
11,T29C T44C,0.822
12,T29C T44G,0.848
13,T29C T44A,0.802
14,C28G G34A,0.794
15,C28G G34C,0.768
16,C28G G34T,0.798
17,C28G G46A,0.811
18,C28G G46C,0.792
19,C28G G46T,0.771
20,C28G G50A,0.224
21,C28G G50C,0.19
22,C28G G50T,0.594
23,T29C T43C,0.802
24,T29C T43G,0.815

row,Variant,fraction ligated
1,T29C T43A,0.839
2,C28G C42T,0.815
3,C28G C42G,0.851
4,C28G C42A,0.824
5,C28T T44G,0.813
6,C28T T44C,0.783
7,C28T T44A,0.816
8,T29C C42T,0.828
9,T29C C42G,0.818
10,T29C C42A,0.85
11,T29A G50C,0.195
12,T29A G50A,0.295
13,T29A G50T,0.585
14,T29A A36G,0.853
15,T29A A36T,0.847
16,T29A A36C,0.855
17,T29G A36G,0.823
18,T29G A36T,0.826
19,T29G A36C,0.825
20,C28G T35C,0.802
21,C28G T35A,0.814
22,C28G T35G,0.759
23,C28T A37G,0.8
24,C28T A37T,0.81

row,Variant,fraction ligated
1,C28T A37C,0.799
2,T29A G34T,0.842
3,T29A G34A,0.852
4,T29A G34C,0.816
5,T29C G47C,0.264
6,T29C G47A,0.793
7,T29C G47T,0.508
8,C28G T30A,0.802
9,C28G T30C,0.794
10,C28G T30G,0.788
11,C28A T49C,0.605
12,C28A T49A,0.679
13,C28A T49G,0.724
14,T29A C33T,0.859
15,T29A C33A,0.852
16,T29A C33G,0.868
17,C28T G34C,0.79
18,C28T G34A,0.814
19,C28T G34T,0.802
20,T29A C42A,0.86
21,T29A C42T,0.826
22,T29A C42G,0.867
